Source: US10772928B2, “Modulation and detection of a neuronal alternative splicing regulatory network for treatment and diagnosis of neurological disorders” (The Governing Council of the University of Toronto, priority 2014, dated 2020)

T1: nSR100 (Mus musculus, UniProt Q8BKA3)
T1 construct: host or cells: mouse N2A cells
T1 sequence (Q8BKA3 1-608): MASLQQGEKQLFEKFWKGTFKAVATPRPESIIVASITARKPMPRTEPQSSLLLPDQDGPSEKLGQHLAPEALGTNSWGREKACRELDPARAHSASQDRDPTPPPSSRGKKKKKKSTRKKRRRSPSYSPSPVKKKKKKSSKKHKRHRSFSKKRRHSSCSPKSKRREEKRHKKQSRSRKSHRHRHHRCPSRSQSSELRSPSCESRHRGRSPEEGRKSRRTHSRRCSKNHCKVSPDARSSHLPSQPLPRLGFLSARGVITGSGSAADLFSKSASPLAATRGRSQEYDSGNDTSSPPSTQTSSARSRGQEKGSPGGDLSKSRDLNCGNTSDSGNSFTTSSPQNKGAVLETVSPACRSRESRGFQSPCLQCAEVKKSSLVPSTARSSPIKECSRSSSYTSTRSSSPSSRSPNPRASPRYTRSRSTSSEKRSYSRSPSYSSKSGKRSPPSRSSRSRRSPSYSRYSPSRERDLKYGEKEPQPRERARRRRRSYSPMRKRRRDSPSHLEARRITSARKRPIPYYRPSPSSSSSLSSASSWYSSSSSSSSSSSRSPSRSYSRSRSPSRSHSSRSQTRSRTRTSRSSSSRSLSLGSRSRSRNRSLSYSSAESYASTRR


Molecular target: T1, nSR100
Assay: AP-MS nSR100 interaction partners from mouse N2A cells (Table 5)
Type: binding
Details: for AvgP (average of the SAINT scores) / MaxP (maximal SAINT score): bait Srrm4; for FoldChange between the prey Avg spectra of the bait and control purifications: bait Srrm4, 0.1 added to prevent division by 0; for AvgSpec (average number of spectra per replicate): bait Srrm4, 2 replicates; for Spectra (number of spectra for the prey in the purification of the bait): AP-MS; for SpecSum: bait Srrm4, sum of spectra over 2 replicates
[1] = bait Srrm4, biological replicate 1 (first number of the cell)
[2] = bait Srrm4, biological replicate 2 (second number of the cell)

Description: By applying affinity purification coupled to mass-spectrometry (AP-MS), several interaction nSR100 partner proteins were detected that provide insight into mechanisms of post-translational regulation of nSR100 levels.

| Molecule | AvgP (average of the SAINT scores) | MaxP (maximal SAINT score) | FoldChange between the prey Avg spectra of the bait and control purifications | AvgSpec (average number of spectra per replicate) | Spectra (number of spectra for the prey in the purification of the bait) [1] | Spectra (number of spectra for the prey in the purification of the bait) [2] | SpecSum |
| --- | --- | --- | --- | --- | --- | --- | --- |
| Sf3a1 (protein, UniProt Q8K4Z5 1-791, looked up) Splicing factor 3A subunit 1: MQAGPVQAVPPPPPVATESKQPIEEEASSKEDPTPSKPVVGIIYPPPEVRNIVDKTASFVARNGPEFEARIRQNEINNPKFNFLNPNDPYHAYYRHKVSEFKEGKAQEPSAAIPKVMQQQQQATQQQLPQKVQAQVIQETIVPKEPPPEFEFIADPPSISAFDLDVVKLTAQFVARNGRQFLTQLMQKEQRNYQFDFLRPQHSLFNYFTKLVEQYTKILIPPKGLFSKLKKEAENPREVLDQVCYRVEWAKFQERERKKEEEEKEKERVAYAQIDWHDFVVVETVDFQPNEQGNFPPPTTPEELGARILIQERYEKFGESEEVEMEVESDEEDQEKAEETPSQLDQDTQVQDMDEGSDDEEEGQKVPPPPETPMPPPLPPTPDQVIVRKDYDPKASKPLPPAPAPDEYLVSPITGEKIPASKMQEHMRIGLLDPRWLEQRDRSIREKQSDDEVYAPGLDIESSLKQLAERRTDIFGVEETAIGKKIGEEEIQKPEEKVTWDGHSGSMARTQQAAQANITLQEQIEAIHKAKGLVPEDDTKEKIGPSKPNEIPQQPPPPSSATNIPSSAPPITSVPRPPAMPPPVRTTVVSAVPVMPRPPMASVVRLPPGSVIAPMPPIIHAPRINVVPMPPAAPPIMAPRPPPMIVPTAFVPAPPVAPVPAPAPMPPVHPPPPMEDEPPSKKLKTEDSLMPEEEFLRRNKGPVSIKVQVPNMQDKTEWKLNGQGLVFTLPLTDQVSVIKVKIHEATGMPAGKQKLQYEGIFIKDSNSLAYYNMASGAVIHLALKERGGRKK | 1 | 1 | 8.33 | 25 | 20 | 30 | 50 |
| Rbm25 (protein, UniProt B2RY56 1-838, looked up) RNA-binding protein 25: MSFPPHLNRPPMGIPALPPGIPPPQFPGFPPPVPPGTPMIPVPMSIMAPAPTVLVPTVSMVGKHLGARKDHPGLKLKENDENCGPTTTVFVGNISEKASDMLIRQLLAKCGLVLSWKRVQGASGKLQAFGFCEYKEPESTLRALRLLHDLQIGEKKLLVKVDAKTKAQLDEWKAKKKANGNARPETVTNDDEEALDEETKRRDQMIKGAIEVLIREYSSELNAPSQESDSHPRKKKKEKKEDIFRRFPVAPLIPYPLITKEDINAIEMEEDKRDLISREISKFRDTHKKLEEEKGKKEKERQEIEKERRERERERERERERREREREREREREREKEKERERERERDRDRDRTKERDRDRERDRDRDRERSSDRNKDRSRSREKSRDREREREREREREREREREREREREREREREREREKDKKRDREEDEEDAYERRKLERKLREKEAAYQERLKNWEIRERKKTREYEKEAEREEERRREMAKEAKRLKEFLEDYDDDRDDPKYYRGSALQKRLRDREKEMEADERDRKREKEELEEIRQRLLAEGHPDPDAELQRMEQEAERRRQPQIKQEPESEEEEEEKQEKEEKREEPVEEEEEPEQKPCLKPTLRPISSAPSVSSASGNATPNTPGDESPCGIIIPHENSPDQQQPEEHRPKIGLSLKLGASNSPGQPNSVKRKKLPVDSVFNKFEDEDSDDVPRKRKLVPLDYGEDDKNATKGTVNTEEKRKHIKSLIEKIPTAKPELFAYPLDWSIVDSILMERRIRPWINKKIIEYIGEEEATLVDFVCSKVMAHSSPQSILDDVAMVLDEEAEVFIVKMWRLLIYETEAKKIGLVK | 1 | 1 | 180 | 18 | 16 | 20 | 36 |
| Srrm1 (protein, UniProt Q52KI8 1-946, looked up) Serine/arginine repetitive …: MDAGFFRGTSAEQDNRFSNKQKKLLKQLKFAECLEKKVDMSKVNLEVIKPWITKRVTEILGFEDDVVIEFIFNQLEVKNPDSKMMQINLTGFLNGKNAREFMGELWPLLLSAQENIAGIPSAFLELKKEEIKQRQIEQEKLASLKKQDEDKDKRDKEEKESSREKRERSRSPRRRKSRSPSPRRRSSPVRRERKRSHSRSPRHRTKSRSPSPAPEKKEKSPELPEPSVRMKDSSVQEATSTSDILKAPKPEPVPEPKEPSPEKNSKKEKEKTRPRSRSRSKSRSRTRSRSPSHTRPRRRHRSRSRSYSPRRRPSPRRRPSPRRRTPPRRMPPPPRHRRSRSPGRRRRRSSASLSGSSSSSSSSRSRSPPKKPPKRTSSPPRKTRRLSPSASPPRRRHRPSSPATPPPKTRHSPTPQQSNRTRKSRVSVSPGRTSGKVTKHKGTEKRESPSPAPKPRKVELSESEEDKGSKMAAADSVQQRRQYRRQNQQSSSDSGSSSTSEDERPKRSHVKNGEVGRRRRHSPSRSASPSPRKRQKETSPRMQMGKRWQSPVTKSSRRRRSPSPPPARRRRSPSPAPPPPPPPPPPRRRRSPTPPPRRRTPSPPPRRRSPSPRRYSPPIQRRYSPSPPPKRRTASPPPPPKRRASPSPPPKRRVSHSPPPKQRSPTVTKRRSPSLSSKHRKGSSPGRSTREARSPQPNKRHSPSPRPRAPQTSSPPPVRRGASASPQGRQSPSPSTRPIRRVSRTPEPKKIKKTAMATQRNIRRVSKSPKADSLSRAASPSPQSVRRVSSSRSVSGSPEPAAKKPPAPPSPVQSQSPSTNWSPAVPAKKAKSPTPSLSPARNSDQEGGGKKKKKKKDKKHKKDKKHKKHKKHKKEKAVTIATPATAAPAAVSAATTTSAQEEPAAAPEPRKETESEAEDDNLDDLERHLREKALRSMRKAQVSPQS | 1 | 1 | 6.78 | 30.5 | 25 | 36 | 61 |
| Sf1 (protein, UniProt Q64213 2-653, looked up) Splicing factor 1: ATGANATPLDFPSKKRKRSRWNQDTMEQKTVIPGMPTVIPPGLTREQERAYIVQLQIEDLTRKLRTGDLGIPPNPEDRSPSPEPIYNSEGKRLNTREFRTRKKLEEERHTLITEMVALNPDFKPPADYKPPATRVSDKVMIPQDEYPEINFVGLLIGPRGNTLKNIEKECNAKIMIRGKGSVKEGKVGRKDGQMLPGEDEPLHALVTANTMENVKKAVEQIRNILKQGIETPEDQNDLRKMQLRELARLNGTLREDDNRILRPWQSSETRSITNTTVCTKCGGAGHIASDCKFQRPGDPQSAQDKARMDKEYLSLMAELGEAPVPASVGSTSGPATTPLASAPRPAAPASNPPPPSLMSTTQSRPPWMNSGPSENRPYHGMHGGGPGGPGGGPHSFPHPLPSLTGGHGGHPMQHNPNGPPPPWMQPPPPPMNQGPHPPGHHGPPPMDQYLGSTPVGSGVYRLHQGKGMMPPPPMGMMPPPPPPPSGQPPPPPSGPLPPWQQQQQQPPPPPPPSSSMASSTPLPWQQNTTTTTTSAGTGSIPPWQQQQAAAAASPGTPQMQGNPTMVPLPPGVQPPLPPGAPPPPPCSIECLLCLLSSPNSLCLSPNRAARIPPRGSDGPSHESEDFPRPLVTLPGRQPQQRPWWTGWFGKAA | 1 | 1 | 11.92 | 71.5 | 70 | 73 | 143 |
| Rad23b (protein, UniProt P54728 1-416, looked up) UV excision repair protein …: MQVTLKTLQQQTFKIDIDPEETVKALKEKIESEKGKDAFPVAGQKLIYAGKILSDDTALKEYKIDEKNFVVVMVTKPKAVTTAVPATTQPSSTPSPTAVSSSPAVAAAQAPAPTPALPPTSTPASTAPASTTASSEPAPAGATQPEKPAEKPAQTPVLTSPAPADSTPGDSSRSNLFEDATSALVTGQSYENMVTEIMSMGYEREQVIAALRASFNNPDRAVEYLLMGIPGDRESQAVVDPPPQAVSTGTPQSPAVAAAAATTTATTTTTSGGHPLEFLRNQPQFQQMRQIIQQNPSLLPALLQQIGRENPQLLQQISQHQEHFIQMLNEPVQEAGSQGGGGGGGGGGGGGGGGGIAEAGSGHMNYIQVTPQEKEAIERLKALGFPEGLVIQAYFACEKNENLAANFLLQQNFDED | 1 | 1 | 35 | 3.5 | 3 | 4 | 7 |
